For this assay, the target named is l[…]/HLA-A*02:01 (l = D-leucine) (human). Put plainly: SEC TAPBPR binding assay.

B1: TAPasin Binding Protein Related (TAPBPR), luminal domain, His6-tagged (other)
chain: KPHPAEGQWRAVDVVLDCFLAKDGAHRGALASSEDRARASLVLKQVPVLDDGSLEDFTDFQGGTLAQDDPPIIFEASVDLVQIPQAEALLHADCSGKEVTCEISRYFLQMTETTVKTAAWFMANMQVSGGGPSISLVMKTPRVTKNEALWHPTLNLPLSPQGTVRTAVEFQVMTQTQSLSFLLGSSASLDCGFSMAPGLDLISVEWRLQHKGRGQLVYSWTAGQGQAVRKGATLEPAQLGMARDASLTLPGLTIQDEGTYICQITTSLYRAQQIIQLNIQASPKVRLSLANEALLPTLICDIAGYYPLDVVVTWTREELGGSPAQVSGASFSSLRQSVAGTYSISSSLTAEPGSAGATYTCQVTHISLEEPLGASTQVVPPERR
notes: domain: luminal domain; Molecular chaperone; also called TAPBR; HIS-Tagged TAPBPR; not shown: His6 tag
Consider B1, for which the binding result is reported as “no binding”.

Values taken from patent US20210371499A1 (University of California, published 2021).
